From patent US20140256640A1 (PAION DEUTSCHLAND, published 2014)

Target: human thrombin (human, UniProt P00734 328-622)
Test: equilibrium titration of thrombin (20 nM) with thrombomodulin in solution, read by the change in fluorescence of the thrombin inhibitor DAPA, fitted by nonlinear regression
Protocol: A solution containing thrombin (20 nM), thrombomodulin (1.54 μM), and DAPA (20 nM, dansylarginine N-3-(ethyl-1,5-pentanediyl)amide, a fluorescent, reversible thrombin inhibitor) in 0.02 M Tris-HCl, 0.15 M NaCl, 5.0 mM CaCl₂, 0.01% Tween 80, pH 7.4, was added in small successive aliquots to an otherwise identical solution that lacked thrombomodulin. The additions were performed in a cuvette fitted with a magnetic stirrer in the sample compartment of a Perkin-Elmer model LS50B spectrofluorimeter. Intensity values were continuously recorded with excitation and emission wavelengths of 280 and 545 nm, respectively. A 430-nm cut-off filter was used in the emission beam. The intensity of fluorescence, I, was assumed to be the sum of intensities from thrombin-DAPA (T·D) and thrombin-thrombomodulin-DAPA (T·TM·D). That is, I=i₁·[T·D]+i₂·[T·TM·D], where i₁ and i₂ are the coefficients of fluorescence for T·D and T·TM·D (since excitation was at 280 nm, the emission from free DAPA was negligible).
Therefore, with KTM defined as the dissociation constant for the thrombin-thrombomodulin interaction, [T][TM]=KTM[T·TM]; [T·D][TM]=KTM[T·TM·D]; and ([T]+[T·D])·[TM]=KTM([T·TM]+[T·TM·D]). The last expression is identical to f·[TM]=KTM·b. Since f=1−b and [TM]=[TM]₀−b[T]₀, where [TM]₀ is the total thrombomodulin concentration, the following equation is obtained: (1−b)([TM]₀−b·[T]₀)=KTM·b. […]

Kd: 23 nM
B1: Solulin (recombinant human soluble thrombomodulin) (receptor)
chain: EPQPGGSQCVEHDCFALYPGPATFLNASQICDGLRGHLMTVRSSVAADVISLLLNGDGGVGRRRLWIGLQLPPGCGDPKRLGPLRGFQWVTGDNNTSYSRWARLDLNGAPLCGPLCVAVSAAEATVPSEPIWEEQQCEVKADGFLCEFHFPATCRPLAVEPGAAAAAVSITYGTPFAARGADFQALPVGSSAAVAPLGLQLMCTAPPGAVQGHWAREAPGAWDCSVENGGCEHACNAIPGAPRCQCPAGAALQADGRSCTASATQSCNDLCEHFCVPNPDQPGSYSCMCETGYRLAADQHRCEDVDDCILEPSPCPQRCVNTQGGFECHCYPNYDLVDGECVEPVDPCFRANCEYQCQPLNQTSYLCVCAEGFAPIPHEPHRCQLFCNQTACPADCDPNTQASCECPEGYILDDGFICTDIDECENGGFCSGVCHNLPGTFECICGPDSALAGQIGTDCDSGKVDGGDSGAGEPPPSPTPGSTLTPP
notes: Obtained from PAION Deutschland GmbH; also called sTM; recombinant soluble thrombomodulin
